From patent publication US20180222992A1 (Hoffmann-La Roche, published 2018)

B1: Antibody 0012 (bispecific antibody, human IgG1, kappa)
chain 1: DIVLTQSPATLSLSPGERATLSCRASQSVSSSYLAWYQQKPGQAPRLLIYGASSRATGVPARFSGSGSGTDFTLTISSLEPEDFATYYCLQIYNMPITFGQGTKVEIKRTVAAPSVFIFPPSDRKLKSGTASVVCLLNNFYPREAKVQWKVDNALQSGNSQESVTEQDSKDSTYSLSSTLTLSKADYEKHKVYACEVTHQGLSSPVTKSFNRGEC
chain 2: not shown
chain 3: QSMQESGPGLVKPSQTLSLTCTVSGFSLSSYAMSWIRQHPGKGLEWIGYIWSGGSTDYASWAKSRVTISKTSTTVSLKLSSVTAADTAVYYCARRYGTSYPDYGDASGFDPWGQGTLVTVSSASVAAPSVFIFPPSDEQLKSGTASVVCLLNNFYPREAKVQWKVDNALQSGNSQESVTEQDSKDSTYSLSSTLTLSKADYEKHKVYACEVTHQGLSSPVTKSFNRGEC
chain 4: not shown
notes: knob-into-hole; The anti-A-beta light chain occurs twice
B2: Antibody 0020 (bispecific antibody, human IgG1, kappa)
chain 1: B1 chain 1
chain 2: not shown
chain 3: not shown
B3: Antibody 0015 (bispecific antibody)
light 1: B1 chain 1
heavy 1: not shown
light 2: AIQLTQSPSSLSASVGDRVTITCRASQSISSYLAWYQQKPGKAPKLLIYRASTLASGVPSRFSGSGSGTDFTLTISSLQPEDFATYYCQQNYASSNVDNTFGGGTKVEIKSSASTKGPSVFPLAPSSKSTSGGTAALGCLVKDYFPEPVTVSWNSGALTSGVHTFPAVLQSSGLYSLSSVVTVPSSSLGTQTYICNVNHKPSNTKVDKKVEPKSC
heavy 2: not shown
notes: knob-into-hole
B4: Antibody 0024 (bispecific antibody, human IgG1, kappa)
chain 1: not shown
chain 2: not shown
chain 3: B3 light 2
chain 4: not shown
notes: as for B1

Molecular target: A-beta (human)
Test: cell-based or functional assay

IL-8 [ng/ml], U937-cell assay [ng/mL] | IP-10 [ng/ml], U937-cell assay [ng/mL] | Binder
7 | 5.3 | B1
7 | 4.5 | B2
– | 5 | B3
8 | 5.2 | B4

Molecular target: T1, A-beta peptide (1-40) (human)
T1 construct: also called Aβ(1-40); Aβ40
Test: BIAcore; after 14 days, pH 7.4, 37° C., PBS buffer, relative to untreated control
Protocol: (§1) After incubation ended, samples were analyzed for relative active concentration (BIAcore), aggregation (SEC) and fragmentation (capillary electrophoresis or SDS-PAGE) and compared with the untreated control.

relative A-beta peptide (1-40) binding by BIAcore [%] | Binder
82 | B1
86 | B3
101 | B4

Molecular target: T2, human transferrin receptor (human, UniProt P02786 89-760)
T2 construct: also called human TfR; Recombinant His6-tagged human transferrin receptor (R&D systems, cat. no 2474-TR-050)
Test: as above
Protocol: as §1

T2 sequence (P02786 89-760 limits assumed): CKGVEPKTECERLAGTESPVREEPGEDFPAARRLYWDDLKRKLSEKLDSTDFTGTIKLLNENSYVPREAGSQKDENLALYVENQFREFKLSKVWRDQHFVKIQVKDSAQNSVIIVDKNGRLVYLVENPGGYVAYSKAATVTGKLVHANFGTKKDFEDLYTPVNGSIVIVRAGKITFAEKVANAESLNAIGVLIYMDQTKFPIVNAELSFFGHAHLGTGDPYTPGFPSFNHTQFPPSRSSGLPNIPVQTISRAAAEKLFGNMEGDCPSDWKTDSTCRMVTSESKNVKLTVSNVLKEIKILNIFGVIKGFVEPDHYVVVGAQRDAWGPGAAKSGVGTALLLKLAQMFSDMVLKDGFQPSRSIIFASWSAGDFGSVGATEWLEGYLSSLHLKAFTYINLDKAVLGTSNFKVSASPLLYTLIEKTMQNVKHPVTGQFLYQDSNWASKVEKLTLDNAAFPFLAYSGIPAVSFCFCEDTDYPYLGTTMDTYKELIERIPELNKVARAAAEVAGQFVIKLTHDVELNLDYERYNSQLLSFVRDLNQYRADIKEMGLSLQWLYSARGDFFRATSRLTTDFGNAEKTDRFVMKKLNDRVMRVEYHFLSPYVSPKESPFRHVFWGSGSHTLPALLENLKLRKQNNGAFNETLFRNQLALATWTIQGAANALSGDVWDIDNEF

relative human transferrin receptor binding by BIAcore [%] | Binder
78 | B1
85 | B3
90 | B4

Molecular target: T1, A-beta peptide (1-40)
Test: BIAcore; after 14 days, pH 6.0, 40° C., His/NaCl buffer, relative to untreated control
Protocol: as §1

relative A-beta peptide (1-40) binding by BIAcore [%] | Binder
87 | B1
96 | B3
97 | B4

Molecular target: T2, human transferrin receptor
Test: as above
Protocol: as §1

relative human transferrin receptor binding by BIAcore [%] | Binder
101 | B1
91 | B3
93 | B4
